From patent publication WO2021237516A1 (dated 2021)

B1: Ab2001.10 (antibody, V domains shown)
VH: QVQLVQSGAEVKKPGASVKVSCKASGDTFSSFDINWVRQATGQGLEWMGWMHAGSGNAGYAQKFQGRVTMTRDTSISTAYMELSSLRSEDTAVYYCANYVPHGAFQIWGQGTMVTVSS
VL: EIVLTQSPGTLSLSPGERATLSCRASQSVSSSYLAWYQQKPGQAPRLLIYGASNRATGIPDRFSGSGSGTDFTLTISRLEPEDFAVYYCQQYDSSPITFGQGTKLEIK
B2: Ab2001.08 (antibody, V domains shown)
VH: QVQLVQSGAEVKKPGSSVKVSCKASGGTFSSYAISWVRQAPGQGLEWMGRIIPIFGTANYAQKFQGRVTITADESTSTAYMELSSLRSEDTAVYYCASLASYSSGWEDVFDIWGQGTMVTVSS
VL: DIQMTQSPSSLSASVGDRVTITCRASQGISSWLAWYQQKPGKAPKLLIYDASNLETGVPSRFSGSGSGTDFTFTISSLQPEDIATYYCQQYDNLPLTFGGGTKVEIK
B3: Ab2001.16 (bispecific antibody, V domains shown)
VH 1: EVQLVESGGGLVQPGGSLRLSCAASGFSFSNSDMHWVRQATGKGLEWVSAIGDSGDTYYSDSVKGRFTISRENAKSSLYLQMNSLRAEDTAVYYCARAANWGWDWYFDLWGRGTLVTVSS
VH 2: EVQLVETGGGLIQPGGSLRLSCAASGFTVSSNYMSWVRQAPGKGLEWVSVIYSGGSTYYADSVKGRFTISRDNSKNTLYLQMNSLRAEDTAVYYCARDAGPYGMDVWGQGTTVTVSS
VL: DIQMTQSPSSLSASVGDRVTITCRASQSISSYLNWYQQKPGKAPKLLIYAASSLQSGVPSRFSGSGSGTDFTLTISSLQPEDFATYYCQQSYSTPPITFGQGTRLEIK
B4: Ab2001.11 (antibody, V domains shown)
VH: EVQLVESGGGLVQPGGSLRLSCAASGFSFSNSDMHWVRQATGKGLEWVSAIGDSGDTYYSDSVKGRFTISRENAKSSLYLQMNSLRAEDTAVYYCARAANWGWDWYFDLWGRGTLVTVSS
VL: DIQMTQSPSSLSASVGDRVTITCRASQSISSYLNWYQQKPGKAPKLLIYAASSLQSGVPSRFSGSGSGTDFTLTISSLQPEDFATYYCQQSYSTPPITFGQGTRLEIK

What was measured:
SARS-CoV-2 S1 = SARS-CoV-2 S1 (SARS-CoV-2, UniProt P0DTC2 16-685)
SARS-CoV S1 = SARS-CoV S1 (SARS-CoV, UniProt P59594 14-667); experiment: competition ELISA as in Example 3.2: blocking of SARS-CoV S1 binding to hACE2

Binder | Kd (SARS-CoV-2 S1) [nM] | IC50 (SARS-CoV S1) [nM]
B1 | 4.21 | 
B2 | 2.93 | 
B3 | 2.39 | 
B4 |  | 304
